Assay results from PMC3340011 (Biophysical Chemistry, 2011).
Like-named read-outs stand apart in the source and are kept apart here. Where no end group is shown, it is not given here.

B1: Fl-A_(1588): A_(1588) (residues 1588–1609 of Cav1.2 CTT) fluoresceinated at the N-terminus (peptide)
peptide: {5,6‑carboxyfluorescein}-FNATLFALVRTALRIKTEGNLE
B2: Fl-C_(1614): C_(1614) (residues 1614–1635 of Cav1.2 CTT) fluoresceinated at the N-terminus (peptide)
peptide: {5,6‑carboxyfluorescein}-ELRAIIKKIWKRTSMKLLDQVV
B3: Fl-IQ′_(1650): IQ′_(1650) (residues 1650–1675 of Cav1.2 CTT) fluoresceinated at the N-terminus (peptide)
peptide: {5,6‑carboxyfluorescein}-ATFLIQEYFRKFKKRKEQGLVGKPSQ

Key:
Assay in all cases: fluorescence polarisation
[1] = target: T1, Full-length mammalian calmodulin, residues 1–148 (rat) (rat, UniProt P0DP29 1-149)
[2] = target: T1, Full-length mammalian calmodulin, …; remark: listed apart in the source
[3] = target: C-domain fragment of calmodulin, residues 76–148 (rat, UniProt P0DP29 77-149)
[4] = target: N-domain fragment of calmodulin, residues 1–80 (rat, UniProt P0DP29 2-81)

Binder	Kd [1] [nM]	Kd [2] [nM]	Kd [3] [nM]	Kd [4] [nM]
B1	≤ 2			
B2	≤ 2	4100 ± 370	≤ 70	≤ 70
B3	≤ 2	2500 ± 180	≤ 10	1100 ± 970
